Experimental data reported in publication PMC4176348, “Structure analysis of free and bound states of an RNA aptamer against ribosomal protein S8 from Bacillus anthracis”.

What was measured:
[1] = biological target: T1, ribosomal protein S8 (B. anthracis) (Bacillus anthracis, UniProt Q81VR6 1-132); assay: fluorescence anisotropy; 10 mM Mg acetate; settings: protein: recombinant; tags: N-terminal 6xHis (pET28b NheI-XhoI); label: 5'-fluorescein
[2] = biological target: ribosomal protein S8 (E. coli) (Escherichia coli, UniProt P0A7W7 1-130); assay: fluorescence anisotropy; 10 mM Mg acetate; settings: protein: recombinant, tags: N-terminal 6xHis (pET28b NheI-XhoI), label: 5'-fluorescein, hairpin
[3] = biological target: ribosomal protein S8 (B. anthracis) (Bacillus anthracis, UniProt Q81VR6 1-132); assay: fluorescence anisotropy; 10 mM Mg acetate; settings: protein: recombinant; tags: N-terminal 6xHis (pET28b NheI-XhoI); label: 5'-fluorescein; hairpin, asymmetric internal loop
[4] = biological target: T1, ribosomal protein S8 (B. anthracis); assay: 1:1 complex; settings: protein: recombinant; tags: N-terminal 6xHis (pET28b NheI-XhoI)

B1: S8 RNA aptamer, fluorescein hairpin (structured_RNA)
RNA: CGCUGGCGGGUCAGUGAUCACUUCGGUGAUAUCAGACCCGGCAGCG
Kd [1]: 110 ± 30 nM | Kd ([2]; symmetric internal loop): 19 ± 4 nM

B2: helix 21 16S rRNA S8 site, fluorescein hairpin (structured_RNA)
RNA: CGCUGGCGGGAUUAAGUCGACUUCGGUCGAAACUGGUCCCGGCAGCG
Kd [3]: 180 ± 60 nM | Kd ([2]; asymmetric internal loop): 28 ± 7 nM

B3: RNA-2 aptamer (crystal) (structured_RNA)
RNA: GGGAUGCUCAGUGAUCCUUCGGGAUAUCAGGGCAUCCC
binding result [4]: binds
